Assays:
[1] = target: T1, human CLEC12A expressed on cells (human, UniProt Q5QGZ9 1-265); assay: flow cytometry, PL21 cells
T1 construct: Transduced isogenic cells or endogenous expression on AML cells; also called RMA-hCLEC12A; Ba/F3-hCLEC12A
T1 sequence: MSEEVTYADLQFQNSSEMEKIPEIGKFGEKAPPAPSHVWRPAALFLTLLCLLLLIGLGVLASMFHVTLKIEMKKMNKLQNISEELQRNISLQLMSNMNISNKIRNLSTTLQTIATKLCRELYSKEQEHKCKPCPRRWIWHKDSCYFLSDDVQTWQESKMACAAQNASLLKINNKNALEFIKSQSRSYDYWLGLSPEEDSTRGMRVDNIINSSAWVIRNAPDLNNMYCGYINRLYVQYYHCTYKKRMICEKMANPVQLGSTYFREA
Procedure: The ability of the eight purified subcloned mAbs to bind to CLEC12A expressing cells was assessed by FACS analysis with human CLEC12A-positive PL21 cancer cell line.

[2] = target: T2, Human CLEC12A expressed on cells (Ba/F3-hCLEC12A, PL21, HL60) (human, UniProt Q5QGZ9 1-265); assay: cell-based or functional assay
T2 sequence: T1 sequence

B1: Genentech-h6E7 (antibody, V domains shown)
VH: EVQLVQSGAEVKKPGASVKVSCKASGYSFTDYYMHWVRQAPGQGLEWIGRINPYNGAAFYSQNFKDRVTLTVDTSTSTAYLELSSLRSEDTAVYYCAIERGADLEGYAMDYWGQGTLVTVSS
VL: DIQMTQSPSSLSASVGDRVTITCRASQSVSTSSYNYMHWYQQKPGKPPKLLIKYASNLESGVPSRFSGSGSGTDFTLTISSLQPEDFATYYCQHSWEIPLTFGQGTKVEIK
For B1, the EC50 [1] was 5 nM and the “Max MFI” value [1] was 265 MFI.

B2: AB0237 (F3'-1602 TriNKET) (bispecific antibody, human IgG1, kappa)
chain: QLQLQESGPGLVKPSETLSLTCTVSGFSLTNYGLHWIRQPPGKCLEWIGVIWSGGKTDYNPSLKSRVTISKDTSKNQFSLKLSSVQAADTAVYYCAKYDYDDSLDYWGQGTLVTVSSGGGGSGGGGSGGGGSGGGGSDIQMTQSPSSLSASVGDRVTITCHASQNINFWLSWYQQKPGKAPKLLIYEASNLHTGVPSRFSGSGSGTRFTLTISSLQPEDIATYYCQQSHSYPLTFGCGTKLEIKGSDKTHTCPPCPAPELLGGPSVFLFPPKPKDTLMISRTPEVTCVVVDVSHEDPEVKFNWYVDGVEVHNAKTKPREEQYNSTYRVVSVLTVLHQDWLNGKEYKCKVSNKALPAPIEKTISKAKGQPREPRVYTLPPCRDELTKNQVSLTCLVKGFYPSDIAVEWESNGQPENNYKTTPPVLVSDGSFTLYSKLTVDKSRWQQGNVFSCSVMHEALHNHYTQKSLSLSPG
heavy: EVQLVESGGGLVKPGGSLRLSCAASGFTFSSYSMNWVRQAPGKGLEWVSSISSSSSYIYYADSVKGRFTISRDNAKNSLYLQMNSLRAEDTAVYYCARGAPIGAAAGWFDPWGQGTLVTVSSASTKGPSVFPLAPSSKSTSGGTAALGCLVKDYFPEPVTVSWNSGALTSGVHTFPAVLQSSGLYSLSSVVTVPSSSLGTQTYICNVNHKPSNTKVDKKVEPKSCDKTHTCPPCPAPELLGGPSVFLFPPKPKDTLMISRTPEVTCVVVDVSHEDPEVKFNWYVDGVEVHNAKTKPREEQYNSTYRVVSVLTVLHQDWLNGKEYKCKVSNKALPAPIEKTISKAKGQPREPQVCTLPPSRDELTENQVSLTCLVKGFYPSDIAVEWESNGQPENNYKTTPPVLDSDGSFFLYSWLTVDKSRWQQGNVFSCSVMHEALHNHYTQKSLSLSPG
light: DIQMTQSPSSVSASVGDRVTITCRASQGISSWLAWYQQKPGKAPKLLIYAASSLQSGVPSRFSGSGSGTDFTLTISSLQPEDFATYYCQQGVSFPRTFGGGTKVEIKRTVAAPSVFIFPPSDEQLKSGTASVVCLLNNFYPREAKVQWKVDNALQSGNSQESVTEQDSKDSTYSLSSTLTLSKADYEKHKVYACEVTHQGLSSPVTKSFNRGEC
B2 was tested, and the “% Max, ADCP activity of M0 macrophages against PL21 cells” value [2] was 12% and the “EC50, ADCP activity of M0 macrophages against PL21 cells” value [2] was 0.08 nM.

B3: Merus-CLL1 (antibody, V domains shown)
VH: EVQLVQSGAEVKKPGASVKVSCKASGYTFTSYYMHWVRQAPGQGLEWMGIINPSGGSTSYAQKFQGRVTMTRDTSTSTVYMELSSLRSEDTAVYYCARGNYGDEFDYWGQGTLVTVSS
VL: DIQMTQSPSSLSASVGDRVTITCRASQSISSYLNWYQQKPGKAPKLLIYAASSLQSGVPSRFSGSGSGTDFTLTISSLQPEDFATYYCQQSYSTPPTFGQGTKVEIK
In the case of B3, the EC50 [1] is reported as 2.02 nM and the “Max MFI” value [1] is reported as 201 MFI.
